From patent US20100119520A1 (US Dept. of Health and Human Services, published 2010)

Key:
[1] = target: T1, anthrax edema factor (EF) (Bacillus anthracis, UniProt P40136 34-800)
T1 sequence: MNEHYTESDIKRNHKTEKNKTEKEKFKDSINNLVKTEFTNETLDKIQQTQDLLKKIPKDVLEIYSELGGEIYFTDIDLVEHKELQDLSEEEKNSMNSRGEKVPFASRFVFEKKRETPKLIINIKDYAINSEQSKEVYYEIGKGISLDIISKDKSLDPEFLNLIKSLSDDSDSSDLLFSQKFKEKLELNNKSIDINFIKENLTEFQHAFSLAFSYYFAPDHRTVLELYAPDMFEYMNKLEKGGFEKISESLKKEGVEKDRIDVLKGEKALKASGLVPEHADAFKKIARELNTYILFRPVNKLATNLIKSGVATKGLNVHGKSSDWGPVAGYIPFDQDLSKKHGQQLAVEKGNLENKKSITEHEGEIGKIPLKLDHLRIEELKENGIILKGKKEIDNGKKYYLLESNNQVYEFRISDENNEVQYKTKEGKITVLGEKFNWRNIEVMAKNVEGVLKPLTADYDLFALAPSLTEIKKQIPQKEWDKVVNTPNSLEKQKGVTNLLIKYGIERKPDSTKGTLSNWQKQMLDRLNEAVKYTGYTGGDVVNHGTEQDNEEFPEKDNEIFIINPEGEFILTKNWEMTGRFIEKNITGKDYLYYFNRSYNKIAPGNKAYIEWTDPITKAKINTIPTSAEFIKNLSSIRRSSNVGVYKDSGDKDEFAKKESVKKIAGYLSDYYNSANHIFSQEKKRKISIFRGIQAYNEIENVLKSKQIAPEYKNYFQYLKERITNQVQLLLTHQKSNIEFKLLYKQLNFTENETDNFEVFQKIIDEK

[2] = target: T2, bovine serum albumin (bovine, UniProt P02769 25-607); assay: ELISA, protein coated at 10 ug/ml
T2 construct: also called BSA

[3] = target: lysozyme (Gallus gallus (Chicken), UniProt P00698 19-147); assay: ELISA, protein coated at 10 ug/ml
[4] = target: T1, anthrax edema factor (EF); assay: ELISA, EF coated at 5 ug/ml
[5] = target: anthrax protective antigen (PA), purified (Bacillus anthracis, UniProt P13423 30-764); assay: Western blot of purified toxin proteins; PA as negative control
[6] = target: T1, anthrax edema factor (EF); assay: Western blot of purified toxin proteins (SDS-PAGE) probed with the mAb
[7] = target: T3, anthrax lethal factor (LF) (Bacillus anthracis, UniProt P15917 34-809); assay: cell-based or functional assay
T3 sequence: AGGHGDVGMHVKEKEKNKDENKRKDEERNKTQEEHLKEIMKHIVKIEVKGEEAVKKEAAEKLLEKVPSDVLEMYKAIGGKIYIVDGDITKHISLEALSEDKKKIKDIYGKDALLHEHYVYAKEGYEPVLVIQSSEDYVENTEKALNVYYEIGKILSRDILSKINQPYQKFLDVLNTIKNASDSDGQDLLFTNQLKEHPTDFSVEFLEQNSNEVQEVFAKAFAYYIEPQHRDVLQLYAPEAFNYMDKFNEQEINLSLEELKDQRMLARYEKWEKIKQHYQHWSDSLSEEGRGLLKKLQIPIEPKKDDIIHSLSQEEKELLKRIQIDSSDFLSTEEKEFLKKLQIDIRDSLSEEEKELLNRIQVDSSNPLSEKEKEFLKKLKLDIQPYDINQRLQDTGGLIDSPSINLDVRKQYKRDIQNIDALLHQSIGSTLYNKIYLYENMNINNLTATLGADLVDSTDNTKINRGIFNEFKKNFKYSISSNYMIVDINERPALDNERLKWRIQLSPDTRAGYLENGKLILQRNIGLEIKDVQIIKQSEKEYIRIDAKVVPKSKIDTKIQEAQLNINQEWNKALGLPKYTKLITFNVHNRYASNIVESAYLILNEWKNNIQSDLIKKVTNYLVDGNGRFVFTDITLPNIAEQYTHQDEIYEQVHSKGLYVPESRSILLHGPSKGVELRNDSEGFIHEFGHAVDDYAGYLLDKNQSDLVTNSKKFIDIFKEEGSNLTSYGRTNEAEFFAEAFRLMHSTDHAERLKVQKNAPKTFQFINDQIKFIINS

[8] = target: T3, anthrax lethal factor (LF); assay: SPR (BIAcore 3000), LF immobilized on CM3 chip, Fab injected
[9] = target: T3, anthrax lethal factor (LF); assay: ELISA, LF coated at 5 ug/ml
[10] = target: T1, anthrax edema factor (EF); assay: SPR (BIAcore), IgG immobilized on CM5 chip, recombinant EF injected, 1:1 model
[11] = target: T1, anthrax edema factor (EF); assay: cell-based or functional assay
[12] = target: T1, anthrax edema factor (EF); assay: Western blot of purified toxin proteins (SDS-PAGE) probed with the mAb; remark: listed apart in the source

T2 sequence (P02769 25-607 limits assumed): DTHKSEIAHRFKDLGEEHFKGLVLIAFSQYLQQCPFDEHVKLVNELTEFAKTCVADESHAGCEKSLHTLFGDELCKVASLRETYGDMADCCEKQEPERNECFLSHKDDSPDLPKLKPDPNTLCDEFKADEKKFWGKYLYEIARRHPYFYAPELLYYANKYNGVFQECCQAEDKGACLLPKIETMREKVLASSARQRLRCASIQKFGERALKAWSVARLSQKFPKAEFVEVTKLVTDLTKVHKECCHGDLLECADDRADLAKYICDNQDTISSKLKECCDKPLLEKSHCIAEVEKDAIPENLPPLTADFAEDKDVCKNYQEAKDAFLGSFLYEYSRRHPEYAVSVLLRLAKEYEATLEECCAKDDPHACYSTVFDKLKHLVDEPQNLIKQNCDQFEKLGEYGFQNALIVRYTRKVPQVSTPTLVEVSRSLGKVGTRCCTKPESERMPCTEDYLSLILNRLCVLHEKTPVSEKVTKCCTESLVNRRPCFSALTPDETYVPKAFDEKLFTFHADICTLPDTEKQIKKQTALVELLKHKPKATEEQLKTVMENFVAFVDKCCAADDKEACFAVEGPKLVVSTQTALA
lysozyme, sequence (P00698 19-147 limits assumed): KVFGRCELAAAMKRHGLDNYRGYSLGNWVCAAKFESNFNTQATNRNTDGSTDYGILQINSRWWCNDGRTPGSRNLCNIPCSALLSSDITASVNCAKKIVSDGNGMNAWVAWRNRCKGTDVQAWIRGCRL
anthrax protective antigen (PA), purified, sequence (P13423 30-764 limits assumed): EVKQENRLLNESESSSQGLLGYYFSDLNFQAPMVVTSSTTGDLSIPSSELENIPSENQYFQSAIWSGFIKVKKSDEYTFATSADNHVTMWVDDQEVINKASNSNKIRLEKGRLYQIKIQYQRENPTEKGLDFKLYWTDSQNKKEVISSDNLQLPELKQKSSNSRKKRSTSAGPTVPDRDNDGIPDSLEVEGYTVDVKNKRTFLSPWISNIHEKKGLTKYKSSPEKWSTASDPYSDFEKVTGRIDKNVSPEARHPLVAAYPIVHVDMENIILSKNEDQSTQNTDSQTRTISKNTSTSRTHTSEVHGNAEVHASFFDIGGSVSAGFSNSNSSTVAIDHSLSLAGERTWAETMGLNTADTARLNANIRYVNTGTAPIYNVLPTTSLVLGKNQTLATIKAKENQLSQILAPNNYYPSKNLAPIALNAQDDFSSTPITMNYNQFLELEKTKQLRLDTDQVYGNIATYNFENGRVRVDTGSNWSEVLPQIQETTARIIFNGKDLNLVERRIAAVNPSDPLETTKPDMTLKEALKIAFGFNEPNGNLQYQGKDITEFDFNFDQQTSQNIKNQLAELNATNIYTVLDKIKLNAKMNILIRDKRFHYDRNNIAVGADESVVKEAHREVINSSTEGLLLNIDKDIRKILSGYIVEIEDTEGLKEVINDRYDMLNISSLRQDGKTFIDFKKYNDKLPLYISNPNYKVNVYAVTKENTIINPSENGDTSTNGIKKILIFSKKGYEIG

B1: anti-EF clone EF14H (antibody, V domains shown)
VH: VQLLEESGGGLVKPGGSLRLSCAASGFTFSNYSMNWVRQAPGKGLEWVGFIRTKAKGGTTEYAASVKGRFTISRDDSKSIAYLQMNSLKTEDTAVYYCTPAGIIIRLVTPIYYYYMDVWGKGTTVTVS
VL: AAELTQSPSSLSASVGDRVTITCRASQGIRNYLAWYQQKPGKVPKLLIYAASTLQSGVPSRFSGSGSGTDFTLTISSLQPEDVATYYCQKYSSAPFTFGPGTKVGIKR
EC50 (read off the curve) [1]: ~0.05 µg/mL | binding result [2]: no binding | binding result [3]: no binding

B2: anti-EF clone EF15A (antibody, V domains shown)
VH: VQLLEESGGGVVQPGRSLRLSCTASGFTFSNYGMQWVRQAPGKRLEWVAFISYSGSNKQYADSVRGRFTISRDNSKNILYLQMNSLRSEDTAVYYCARDSHYLDYLPDAFDYWGQGTVVTVS
VL: ELVMTQSPSLLSASVGDRVTITCRASQGISNYLAWFQQKPGKAPKRLIFTAYRLESGVPSRFSGSMSGTEFTLTISSLEPEDFATYYCLQHSAYPPTFGQGTKLEIKR
binding result [4]: binds | binding result [2]: no binding | binding result [3]: no binding

B3: anti-anthrax LF11H monoclonal antibody (IgG) (antibody, V domains shown)
VH: VQLLEQSGAEVKKPGESLKISCKGSGYSFTNYWIGWVRQMPGKGLEWMGIIYPDDSDTRYSPSFQGQVTISFDKSINTAYLQWSSLKASDTAIYYCARALWFRDWGKMDVWGKGTTVTVS
VL: ELQMTQSPSSLSASVGDRVTITCRASQGIRNDLGWYQQKPGKAPKLLIYAASSLQSGVPSRFSGSGSGTDFTLTISSLQPEDFATYYCLQDYTYPWTFGQGTKLEIKR
binding result [5]: no binding | binding result [6]: no binding | EC50 of neutralization of LT toxicity, RAW264.7 macrophage viability (MTT) [7]: 62600 ng/mL | binding result [2]: no binding | binding result [3]: no binding

B4: anti-anthrax LF11H Fab (Fab, V domains shown)
VH: B3 VH
VL: B3 VL
Kd [8]: 7.4 nM | koff [8]: 0.001 s⁻¹ | kon [8]: 130000 M⁻¹ s⁻¹

B5: anti-LF clone LF9D (antibody, V domains shown)
VH: EVQLLESGGGLVKPGGSLRLSCAASGFTFSSYAMHWVRQTPEKGLEWVSTISSIGGSTWYSDSVKGRFTISRDNSKNTLFLHMKSLRAEDTAVYYCARDFFSQVGWSTPNNWFDPWGQGTLVTVS
VL: AAELTQSPSTLSASVGDRVTITCRASQGIATYLNWYQQIPGKAPKLLIYAASTLESGVPSRFSGSGSGAEFTLTISSLQPGDFATYYCQQFYSMPLTFGGGTKVEIKR
binding result [9]: binds | binding result [2]: no binding | binding result [3]: no binding

B6: anti-anthrax EF13D monoclonal antibody (IgG) (antibody, V domains shown)
VH: EVQLLESGAEVKKPGSSVKVSCKVSGGTFSSFGISWVRQAPGQGLEWMGLIIPILGTANYAQKFQGRLTITADESTSTVYMELSSLRSEDTAVYYCATDPYHNWGEWDLDYWGQGTLVTVS
VL: AAELTQSPSSLSASVGDRVSITCRASQSISNYLSWYQQKPGKAPQLLIYDASTLQSGVPSRFSGSGSGTDFTLTISSLQPEDFATYYCQCGYGTYPTFGGGTQVEIKR
Kd [10]: 9.7 nM | koff [10]: 0.0004 s⁻¹ | kon [10]: 41200 M⁻¹ s⁻¹ | EC50 of inhibition of ET-mediated cAMP production in RAW264.7 cells [11]: 28 ng/mL | binding result [2]: no binding | binding result [3]: no binding

B7: anti-anthrax LF10E monoclonal antibody (IgG) (antibody, V domains shown)
VH: EVQLLESGGGLVKPGGSLRLTCAASGFTFSSYAMHWVRQAPEKGLEWVSSISGSGGGTWYADSVKGRFTISRDNSRNTLYLQLNSLRAEDTAVYYCARPKYTGYENPFDYWGQGTLVTVS
VL: ELQMTQSPSSLSASVGDRVTITCRASQDIRNYLAWYQQEPGKAPRLLIYYASKLQSGVPSRFSGRGSGTDYSLTISSLQPEDFATYYCQQYDSVPLTFGGGTKMEIKR
binding result [5]: no binding | binding result [12]: no binding | EC50 of neutralization of LT toxicity, RAW264.7 macrophage viability (MTT) [7]: 15.6 ng/mL | binding result [2]: no binding | binding result [3]: no binding

B8: anti-anthrax LF10E Fab (Fab, V domains shown)
VH: B7 VH
VL: B7 VL
Kd [8]: 0.69 nM | koff [8]: 0.00019 s⁻¹ | kon [8]: 270000 M⁻¹ s⁻¹
